The nature of the data set: protein stability index of a GFP-peptide fusion (GPS, HEK-293T) (PSI 1-6); higher = more stable.
Where [1] appears, read: treatment: DMSO, c terminus: a fixed tail appended.
Where [2] appears, read: treatment: MLN4924 1 uM, 8 h, c terminus: a fixed tail appended.
Where [3] appears, read: treatment: DMSO, c terminus: native.
Setting [4] is: treatment: MLN4924 1 uM, 8 h, c terminus: native.

These results are taken from the supplement of paper PMC10567573.

± gives the standard deviation.
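Note: 24-mer peptide tiles fused after GFP, lentivirally expressed, FACS-sorted into six equal bins by GFP/DsRed ratio, decoded by Illumina sequencing, PSI is the read-weighted mean bin number.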

Consider QLLSERFGRGSRTVDLELELQIEL [ARFIP2], for which the protein stability index by setting is: under setting [1], 2.58 ± 0.46; under setting [2], 2.99 ± 0.94.

As for NIGINGNHSLETCETTLFALRMAT [PTGFR], the protein stability index was 2.34 ± 0.21 under setting [1] and 2.33 ± 0.34 under setting [2]. The like results for VPGHRSERAIRTQPKQLIVDDLKG [SPRY1] were, in that order, 4.25 ± 0.34 and 4.13 ± 0.47. The like results for PIRCGEVLFAVGGWCSGDAISSVE [KLHL20] were, in that order, 2.22 ± 0.42 and 2.34 ± 0.41.

As to LPGACNIPANVSNCNWFCEGSFNG [KRT33B], the protein stability index runs as follows: under setting [1], 2.33 ± 0.27; under setting [2], 2.36 ± 0.22.

As to EGPGEQETKLDLISKGEEPRAGKE [SLC29A1], the protein stability index is, setting by setting: under setting [1], 5.68 ± 0.21; under setting [2], 5.43 ± 0.21. The like results for KPKKKKEKKEKEKKKKDKEKEKEK [BRD3] were, in that order, 5.26 ± 0.097 and 5.19 ± 0.14. The like results for SLPQNQCYMATTKSQTACLPFVLA [EHMT1] were, in that order, 2.35 ± 0.08 and 2.23 ± 0.15. The like results for HVPLQRLSLLVHNVSVMHKSLDNM [FBXO33] were, in that order, 2.01 ± 0.22 and 2.3 ± 0.12. As to AADDFRLKYENELALRQGVEADIN [KRT15], the protein stability index turned out to be 4.77 ± 0.29 under setting [1] and 4.64 ± 0.23 under setting [2]. CETVTCCLFSERDAAGAPRDASDP [SMAD6] displayed a protein stability index under setting [1] of 4.49 ± 0.25 and a protein stability index under setting [2] of 4.62 ± 0.12. The like results for ATGPMGMRGFKGDRGPKGEKGEKG [SCARA5] were, in that order, 5.22 ± 0.24 and 5.43 ± 0.34. The like results for LDSCNSLTPKSTPVKTLPFSPSQF [MYBL2] were, in that order, 3.34 ± 0.2 and 3.37 ± 0.42.

Turning to KIKAIMALVAAILLLVIIILIVMK [VAMP4], the protein stability index reads like this: under setting [1], 2.47 ± 0.51; under setting [2], 2.41 ± 0.8. Regarding VSRREGALGWAPAAPPPLKDDPEG [ZBED3], the protein stability index came to 5.24 ± 0.37 under setting [1] and 5.43 ± 0.12 under setting [2]. As to LIKSGAHFDATNLHKQTASDLLDE [FEM1C], the protein stability index runs as follows: under setting [1], 4.61 ± 0.36; under setting [2], 4.53 ± 0.51. The like results for LGPESWQQIAMDPEEVKSLDSNGA [BCL2L13] were, in that order, 5.16 ± 0.16 and 5.24 ± 0.21.

As to GGEFQCGLEAASVYSDHTNTNNLT [RNF180], the protein stability index by setting is: under setting [1], 2.42 ± 0.36; under setting [2], 2.42 ± 0.29.

In the case of QSSNLFRHQRRHNAEKLLNVVKV [ZNF24], the protein stability index runs as follows: under setting [3], 1.84 ± 0.38; under setting [4], 2.11 ± 0.26. As for NSAAATSPKGTLPPAALESSDSAN [CAMK2B], the protein stability index by setting is: under setting [1], 5.39 ± 0.096; under setting [2], 5.37 ± 0.21.

Take YPFQDSEPVLLFGKIRRGAYALPA [TRIB3]: the protein stability index worked out at 2.48 ± 0.27 under setting [1] and 2.66 ± 0.12 under setting [2]. The like results for GPEHATRLNGTAKGERRREPGGYD [DVL3] were, in that order, 5.13 ± 0.26 and 5.18 ± 0.19. The like results for AVVQLYLALPPGAEHWTKEHCGAV [WAS] were, in that order, 3.03 ± 0.59 and 2.71 ± 0.31. The like results for EKYGAVREVILKELAEATWCGIST [ZBED1] were, in that order, 2.97 ± 0.36 and 2.68 ± 0.35. Take TVYKARDPHSGHFVALKSVRVPNG [CDK4]: the protein stability index under setting [1] was 2.31 ± 0.48 and the protein stability index under setting [2] amounted to 2.68 ± 0.49.

As to TDIDIDTLCAVLERDTLSIRESRL [BTBD1], the protein stability index was determined as 2.84 ± 0.2 under setting [1] and 3.15 ± 0.37 under setting [2]. As for TQRPAMVQTEDQYQFSYRAALEYL [PTPRD], the protein stability index under setting [1] amounted to 2.91 ± 0.35 and the protein stability index under setting [2] worked out at 3.06 ± 0.31. The like results for YRSEDLLDVDTAAGGFQQRQGLKY [FBXO3] were, in that order, 4.25 ± 0.18 and 4.18 ± 0.29. The like results for EDAYKIRIRIDDEPANLDILDTAG [RIT1] were, in that order, 3.38 ± 0.28 and 3.47 ± 0.65.

As for SRSHDRLPYQRRYRERRDSDTYRC [CLK3], the protein stability index under setting [1] came out at 4.09 ± 0.27 and the protein stability index under setting [2] came to 4.24 ± 0.36. The like results for PRETLCTELVLSDCMLSEEGATLL [LRRC45] were, in that order, 3.65 ± 0.2 and 3.83 ± 0.11. As for GSGVIGRSWAMLFASGGFQVKLYD [CRYL1], the protein stability index under setting [1] was 2.33 ± 0.31.

On to ETLSGDRVRLDSELRNVQDVVEDY [KRT71], for which the protein stability index runs as follows: under setting [1], 5.16 ± 0.19; under setting [2], 5.36 ± 0.18. The like results for ALQNKDTYEPFCKVPVITSSKEEQ [KCTD10] were, in that order, 4.4 ± 0.14 and 4.5 ± 0.16.

Consider LMVGPNFRVGKKIGCGNFGELRLG [CSNK1G3], for which the protein stability index worked out at 1.9 ± 0.23 under setting [1] and 2.58 ± 0.59 under setting [2]. The like results for VQEHARCVHPRGGVIQSVSSWKHG [C18orf25] were, in that order, 3.08 ± 0.28 and 3.03 ± 0.4. As for SGATTTAPSLSGKGNPEEEDVDTS [CTNNB1], the protein stability index is 5.61 ± 0.31 under setting [1] and 5.62 ± 0.17 under setting [2]. The like results for NVINHFYCDLPQLFQLSCSSTQLN [OR3A1] were, in that order, 3 ± 0.66 and 2.84 ± 0.34. On to GSQAGGSGSAGQYGSDQQHHLGSG [MYOZ1], for which the protein stability index runs as follows: under setting [1], 4.94 ± 0.23; under setting [2], 5.17 ± 0.18. As to HRGLRCSWEGLAVLDSLLLTLLPQ [RSAD1], the protein stability index turned out to be 3.06 ± 0.41 under setting [1] and 3.07 ± 0.3 under setting [2].

Take SIGDIESCKLVRDKITGQSLGYGF [ELAVL3]: the protein stability index worked out at 2.72 ± 0.21 under setting [1] and 2.55 ± 0.17 under setting [2].

Take CPTEPPDDSCQDQPGTNCALAIKV [ADAMTSL2]: the protein stability index is 4.95 ± 0.31 under setting [1] and 5.03 ± 0.41 under setting [2]. The like results for NFLFRNAASTLTERPCYNRRASKL [ANKRD40] were, in that order, 3.19 ± 0.28 and 3.4 ± 0.12. The like results for FFHCYCPVGFGRRTDPNGDYIRRY [CRY1] were, in that order, 2.4 ± 0.048 and 2.34 ± 0.42. The like results for AADIVNFLTVGSVLQMWHIVDKCT [ZBTB22] were, in that order, 3.24 ± 0.88 and 3.65 ± 0.2.

As for NKISRFQAPISAPEYTYGISNIDT [MFF], the protein stability index is, setting by setting: under setting [1], 3.42 ± 0.28; under setting [2], 3.56 ± 0.45. Consider PTTGYRRLLRFSSQIHNNGQSDFR [LOXL2], for which the protein stability index by setting is: under setting [1], 3.03 ± 0.37; under setting [2], 3.22 ± 0.31.

As to TCISELRMLQREGCFRSQGASLRL [M1AP], the protein stability index under setting [1] amounted to 2 ± 0.29 and the protein stability index under setting [2] worked out at 2.19 ± 0.37. The like results for LPELFHKIGVGAMTWSPLACGIVS [KCNAB2] were, in that order, 2.74 ± 0.42 and 2.84 ± 0.46. The like results for VWTSPRRLVELAGQSLLKDEALAI [PRAME] were, in that order, 3.36 ± 0.15 and 3.34 ± 0.21. As to HSLRAVSTDPPHHDHHDEFCLMP [BEX1], the protein stability index was 3 ± 0.6 under setting [3] and 3.76 ± 0.5 under setting [4]. Turning to KANSPLKGHERTVQYLQHLGTENL [VPS39], the protein stability index by setting is: under setting [1], 3.85 ± 0.3; under setting [2], 3.71 ± 0.31. The like results for PQDRYKAVWLIFFMLGLGTLLPWN [SLC29A1] were, in that order, 3 ± 0.27 and 3.29 ± 0.37.
